# T1: HBsAg (hepatitis B surface antigen; genotype or subtype not stated in the example) (hepatitis B virus)
# T1 chain: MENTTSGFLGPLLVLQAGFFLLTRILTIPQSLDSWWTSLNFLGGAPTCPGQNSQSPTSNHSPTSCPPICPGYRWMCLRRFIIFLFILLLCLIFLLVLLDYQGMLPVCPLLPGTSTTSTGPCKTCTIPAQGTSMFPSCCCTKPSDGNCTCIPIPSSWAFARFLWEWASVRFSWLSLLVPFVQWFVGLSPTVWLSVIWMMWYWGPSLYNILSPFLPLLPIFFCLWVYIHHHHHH
# B1: HBC34-v36 (IgG1 with wild-type Fc, allotype G1m17, 1) (antibody, V domains shown)
# VH: ELQLVESGGGWVQPGGSQRLSCAASGRIFRSFYMSWVRQAPGKGLEWVATINQDGSEKLYVDSVKGRFTISRDNAKNSLFLQMNNLRVEDTAVYYCAAWSGNSGGMDVWGQGTTVSVSS
# VL: SYELTQPPSVSVSPGQTVSIPCSGDKLGNKNVAWFQHKPGQSPVLVIYQDSKRPSGIPERFSGSNSGNTATLTISGTQAMDEAAYFCQTFDSTTVVFGGGTRLTVLG
# notes: also called L-CDR2 GL
# Biological target: T1, HBsAg (hepatitis B surface antigen; …)
# Assay: ELISA on HBsAg; IgG1 with wild-type Fc
binder,measurement,value
B1,EC50,0.7 ng/mL

# From patent publication US20230242621A1 (VIR BIOTECHNOLOGY, published 2023)
